B1: ATL_0005335 (antibody, V domains shown)
VH: EVQLVESGGGLVKPGGSLRLSCAASGFTFNKAWMNWVRQAPGKGLEWVGRIKSGIDGGTTDYAAPVQGRFTISRDDSKNTVYLQMNSLNTEDTAVYYCIPPPYYYYYGLDVWGQGTTVTVSS
VL: QSALTQPASVSGSPGQSITISCTGTSSDIGSYNLVSWYQQHPGNAPKPLIYEGSKRPSGVSARFSGSKSGNTASLTISGLQPEDEADYYCSSYAGFNTLVFGGGTKVTVL
notes: human IgG1; also called ATL_5335
B2: ATL_0005331 (antibody, V domains shown)
VH: B1 VH
VL: QSALTQPRSVSGSPGQSITISCTGTSSDVGSYNLVSWFQQHPGKAPKLIIYEVNKRPSGVPDRFSGSKSGNTASLTVSGLQAEDEADYYCGSYAGTNNVFGTGTKLTVL
notes: human IgG1; also called ATL_5331; Human IgG1 ATL_0005331

Key:
Peptide 4 [1] = target: T1, Peptide 4 (human, cyno); experiment: peptide microarray; Sp C1; IgG 1 µg/ml
T1 peptide: QQQQQPPPPPPPPPP

Peptide 3 [2] = target: T2, Peptide 3 (human, cyno); experiment: peptide microarray; Sp C1; IgG 1 µg/ml
T2 peptide: QQQQQQPPPPPPPPP

Epitope 1 [3] = target: T3, Epitope 1 (human, cyno); experiment: peptide microarray; Sp C1; IgG 1 µg/ml
T3 peptide: QQQQPPPPPPPPPPP

Peptide 2 [4] = target: T4, Peptide 2 (human, cyno); experiment: peptide microarray; Sp C1; IgG 1 µg/ml
T4 peptide: QQQQQQQPPPPPPPP

Peptide 22 = target: T5, Peptide 22 (cyno); experiment: peptide microarray; Sp C1; IgG 1 µg/ml
T5 peptide: QPMLPQPQPPPPPPR

Peptide 18 [5] = target: T6, Peptide 18 (cyno); experiment: peptide microarray; Sp C1; IgG 1 µg/ml
T6 peptide: QQQPPPPPPPPPPPP

Peptide 21 = target: T7, Peptide 21 (cyno); experiment: peptide microarray; Sp C1; IgG 1 µg/ml
T7 peptide: AQPMLPQPQPPPPPP

Peptide 1 [6] = target: T8, Peptide 1 (human, cyno); experiment: peptide microarray; Sp C1; IgG 1 µg/ml
T8 peptide: QQQQQQQQPPPPPPP

Peptide 3 [7] = target: T2, Peptide 3; experiment: peptide microarray; Sp C2; IgG 10 µg/ml
Peptide 26 = target: T9, Peptide 26 (cyno); experiment: peptide microarray; Sp C2; IgG 10 µg/ml
T9 construct: the array is said to hold 15-mers
T9 peptide: QPPPPPPPPPPPPQL

Epitope 1 [8] = target: T3, Epitope 1; experiment: peptide microarray; Sp C2; IgG 10 µg/ml
Peptide 2 [9] = target: T4, Peptide 2; experiment: peptide microarray; Sp C2; IgG 10 µg/ml
Peptide 31 = target: T10, Peptide 31 (cyno); experiment: peptide microarray; Sp C2; IgG 10 µg/ml
T10 peptide: LPQPQPPPPPPPPPP

Peptide 18 [10] = target: T6, Peptide 18; experiment: peptide microarray; Sp C2; IgG 10 µg/ml
Peptide 28 = target: T11, Peptide 28 (cyno); experiment: peptide microarray; Sp C2; IgG 10 µg/ml
T11 peptide: QPMLPQPQPPPPPPP

Peptide 1 [11] = target: T8, Peptide 1; experiment: peptide microarray; Sp C2; IgG 10 µg/ml
[12] = target: T12, Mutant Human HTT Exon 1 48Q (GST) (human); experiment: ELISA
T12 construct: recombinant His- and GST-tagged fusion; also called HTT Exon 1 Q48; 48Q HTT Exon-1

Peptide 8 = target: T13, Peptide 8 (human); experiment: peptide microarray; Sp H; IgG 1 µg/ml
T13 peptide: QAQPLLPQPQPPPPP

Peptide 4 [13] = target: T1, Peptide 4; experiment: peptide microarray; Sp H; IgG 1 µg/ml
Peptide 17 = target: T14, Peptide 17 (human); experiment: peptide microarray; Sp H; IgG 1 µg/ml
T14 peptide: QPPPPPPPPPPGPAV

Peptide 10 = target: T15, Peptide 10 (human); experiment: peptide microarray; Sp H; IgG 1 µg/ml
T15 peptide: QPLLPQPQPPPPPPP

Peptide 3 [14] = target: T2, Peptide 3; experiment: peptide microarray; Sp H; IgG 1 µg/ml
Peptide 12 = target: T16, Peptide 12 (human); experiment: peptide microarray; Sp H; IgG 1 µg/ml
T16 peptide: LLPQPQPPPPPPPPP

Epitope 1 [15] = target: T3, Epitope 1; experiment: peptide microarray; Sp H; IgG 1 µg/ml
Peptide 2 [16] = target: T4, Peptide 2; experiment: peptide microarray; Sp H; IgG 1 µg/ml
Peptide 9 = target: T17, Peptide 9 (human); experiment: peptide microarray; Sp H; IgG 1 µg/ml
T17 peptide: AQPLLPQPQPPPPPP

Peptide 11 = target: T18, Peptide 11 (human); experiment: peptide microarray; Sp H; IgG 1 µg/ml
T18 peptide: PLLPQPQPPPPPPPP

Peptide 13 = target: T19, Peptide 13 (human); experiment: peptide microarray; Sp H; IgG 1 µg/ml
T19 peptide: LPQPQPPPPPPPPPP

Peptide 7 = target: T20, Peptide 7 (human); experiment: peptide microarray; Sp H; IgG 1 µg/ml
T20 peptide: PQAQPLLPQPQPPPP

Peptide 16 = target: T21, Peptide 16 (human); experiment: peptide microarray; Sp H; IgG 1 µg/ml
T21 peptide: PQPPPPPPPPPPGPA

Peptide 1 [17] = target: T8, Peptide 1; experiment: peptide microarray; Sp H; IgG 1 µg/ml
Peptide 43 = target: T22, Peptide 43 (mouse); experiment: peptide microarray; Sp M; IgG 10 µg/ml
T22 peptide: QPPPQGQPPPPPPPL

Peptide 44 = target: T23, Peptide 44 (mouse); experiment: peptide microarray; Sp M; IgG 10 µg/ml
T23 peptide: PPPQGQPPPPPPPLP

Peptide 33 = target: T24, Peptide 33 (mouse); experiment: peptide microarray; Sp M; IgG 10 µg/ml
T24 peptide: QQQQPPPQAPPPPPP

Peptide 38 = target: T25, Peptide 38 (mouse); experiment: peptide microarray; Sp M; IgG 10 µg/ml
T25 peptide: PPQAPPPPPPPPPPQ

Peptide 35 = target: T26, Peptide 35 (mouse); experiment: peptide microarray; Sp M; IgG 10 µg/ml
T26 peptide: QQPPPQAPPPPPPPP

Peptide 34 = target: T27, Peptide 34 (mouse); experiment: peptide microarray; Sp M; IgG 10 µg/ml
T27 peptide: QQQPPPQAPPPPPPP

Peptide 42 = target: T28, Peptide 42 (mouse); experiment: peptide microarray; Sp M; IgG 10 µg/ml
T28 peptide: PQPPPQGQPPPPPPP

Peptide 40 = target: T29, Peptide 40 (mouse); experiment: peptide microarray; Sp M; IgG 10 µg/ml
T29 peptide: QAPPPPPPPPPPQPP

Peptide 32 = target: T30, Peptide 32 (mouse); experiment: peptide microarray; Sp M; IgG 10 µg/ml
T30 peptide: QQQQQPPPQAPPPPP

T12 sequence (chain, as listed by the source mutant limits assumed): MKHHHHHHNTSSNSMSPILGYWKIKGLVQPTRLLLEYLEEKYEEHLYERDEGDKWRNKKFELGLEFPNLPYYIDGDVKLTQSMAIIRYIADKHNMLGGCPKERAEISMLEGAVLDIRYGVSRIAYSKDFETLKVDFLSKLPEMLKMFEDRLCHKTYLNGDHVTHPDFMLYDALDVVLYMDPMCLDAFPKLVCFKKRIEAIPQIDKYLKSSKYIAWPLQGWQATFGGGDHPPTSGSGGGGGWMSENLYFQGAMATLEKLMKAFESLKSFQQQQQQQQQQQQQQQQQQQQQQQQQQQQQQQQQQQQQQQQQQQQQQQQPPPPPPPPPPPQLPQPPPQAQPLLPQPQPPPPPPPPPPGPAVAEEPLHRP

Binder | corrected fluorescence intensity (Peptide 4 [1]) | corrected fluorescence intensity (Peptide 3 [2]) | corrected fluorescence intensity (Epitope 1 [3]) | corrected fluorescence intensity (Peptide 2 [4]) | corrected fluorescence intensity (Peptide 22) | corrected fluorescence intensity (Peptide 18 [5]) | corrected fluorescence intensity (Peptide 21) | corrected fluorescence intensity (Peptide 1 [6]) | corrected fluorescence intensity (Peptide 3 [7]) | corrected fluorescence intensity (Peptide 26) | corrected fluorescence intensity (Epitope 1 [8]) | corrected fluorescence intensity (Peptide 2 [9]) | corrected fluorescence intensity (Peptide 31) | corrected fluorescence intensity (Peptide 18 [10]) | corrected fluorescence intensity (Peptide 28) | corrected fluorescence intensity (Peptide 1 [11]) | binding result [12] | corrected fluorescence intensity (Peptide 8) | corrected fluorescence intensity (Peptide 4 [13]) | corrected fluorescence intensity (Peptide 17) | also measured
B1 | 536 | 520 | 391 | 667 | 82 | 474 | 443 | 381 | 9510 | 1910 | 9590 | 8870 | 7740 | 8370 | 2670 | 7010 | binds | 434 | 409 | 0 | corrected fluorescence intensity (Peptide 10): 845; corrected fluorescence intensity (Peptide 3 [14]): 626; corrected fluorescence intensity (Peptide 12): 932; corrected fluorescence intensity (Epitope 1 [15]): 293; corrected fluorescence intensity (Peptide 2 [16]): 417; corrected fluorescence intensity (Peptide 9): 622; corrected fluorescence intensity (Peptide 11): 936; corrected fluorescence intensity (Peptide 13): 1130; corrected fluorescence intensity (Peptide 7): 0; corrected fluorescence intensity (Peptide 16): 77.5; corrected fluorescence intensity (Peptide 1 [17]): 0; corrected fluorescence intensity (Peptide 43): 899; corrected fluorescence intensity (Peptide 44): 1250; corrected fluorescence intensity (Peptide 33): 3090; corrected fluorescence intensity (Peptide 38): 3520; corrected fluorescence intensity (Peptide 35): 7820; corrected fluorescence intensity (Peptide 34): 5800; corrected fluorescence intensity (Peptide 42): 2280; corrected fluorescence intensity (Peptide 40): 0; corrected fluorescence intensity (Peptide 32): 286
B2 | 136 | 206 | 195 | 118 | 91 | 137 | 182 | 0 | 4830 | 1040 | 4580 | 4070 | 5480 | 4500 | 1700 | 2700 | binds | 260 | 238 | 85.5 | corrected fluorescence intensity (Peptide 10): 274; corrected fluorescence intensity (Peptide 3 [14]): 276; corrected fluorescence intensity (Peptide 12): 374; corrected fluorescence intensity (Epitope 1 [15]): 291; corrected fluorescence intensity (Peptide 2 [16]): 197; corrected fluorescence intensity (Peptide 9): 229; corrected fluorescence intensity (Peptide 11): 280; corrected fluorescence intensity (Peptide 13): 373; corrected fluorescence intensity (Peptide 7): 0; corrected fluorescence intensity (Peptide 16): 90.2; corrected fluorescence intensity (Peptide 1 [17]): 131; corrected fluorescence intensity (Peptide 43): 997; corrected fluorescence intensity (Peptide 44): 1740; corrected fluorescence intensity (Peptide 33): 633; corrected fluorescence intensity (Peptide 38): 825; corrected fluorescence intensity (Peptide 35): 2410; corrected fluorescence intensity (Peptide 34): 1540; corrected fluorescence intensity (Peptide 42): 884; corrected fluorescence intensity (Peptide 40): 234; corrected fluorescence intensity (Peptide 32): 0

Source: US20260209320A1 (ALCHEMAB THERAPEUTICS, published 2026)
